In patent US20260098858A1 (NAVROGEN, published 2026):

B2: soluble human ICAM-1/CD54 (receptor)
chain: QTSVSPSKVILPRGGSVLVTCSTSCDQPKLLGIETPLPKKELLLPGNNRKVYELSNVQEDSQPMCYSNCPDGQSTAKTFLTVYWTPERVELAPLPSWQPVGKNLTLRCQVEGGAPRANLTVVLLRGEKELKREPAVGEPAEVTTTVLVRRDHHGANFSCRTELDLRPQGLELFENTSAPYQLQTFVLPATPPQLVSPRVLEVDTQGTVVCSLDGLFPVSEAQVHLALGDQRLNPTVTYGNDSFSAKASVSVTAEDEGTQRLTCAVILGNQSQETLQTVTIYSFPAPNVILTKPEVSEGTEVTVKCEAHPRAKVTLNGVPAQPLGPRAQLLLKATPEDNGRSFSCSATLEVAGQLIHKNQTRELRVLYGPRLDERDCPGNWTWPENSQQTPMCQAWGNPLPELKCLKDGTFPLPIGESVTVTRDLEGTYLCRARSTQGEVTRKVTVNVLSPRYE
notes: also called sICAM-1; SICAM-1

What was measured:
[1] = molecular target: B2; experiment: ELISA: immobilized monomeric CH2 domain, biotinylated sICAM-1 probe (FIG. 4B)
Experimental: (§1) Experiments represent a minimum of triplicate wells. Statistical analysis was done using the Student's T-test.
First, fragment domain analysis was performed. […] Briefly, plates were coated with 100 μL of 2.5 μg/mL of full length IgG1 antibody or fragments for 1 hour at room temperature in 0.05 M carbonate buffer. Plates were washed in phosphate buffered saline (PBS) plus 0.1% tween-20 (PBS-T) and blocked with 200 uLs of PBS plus 1% BSA. […] Plates were then washed three times with PBS-T, and quantified using TMB colorimetric substrate (Pierce). Reactions were stopped using 0.1N H₂SO₄ and A450 quantitated using a Varioskan plate reader.

human serum albumin = molecular target: T1, human serum albumin (human, UniProt P02768 25-609); experiment: ELISA: immobilized control protein, biotinylated sICAM-1 probe (FIG. 1B)
T1 construct: also called HSA
Text: as §1

B1: secreted recombinant monomeric heavy chain CH2 domain (other, human, UniProt P01857 114-223, looked up)
chain: APELLGGPSVFLFPPKPKDTLMISRTPEVTCVVVDVSHEDPEVKFNWYVDGVEVHNAKTKPREEQYNSTYRVVSVLTVLHQDWLNGKEYKCKVSNKALPAPIEKTISKAK
notes: domain: CH2
binding result [1]: no binding (tested: 0.5 µg/mL biotinylated sICAM-1)

B2
binding result (human serum albumin): no binding (tested: 5 µg/mL biotinylated sICAM-1)
